Measured values reported in the nanobody polyreactivity screen of Harvey et al. (2022).

Test: yeast display, Sf9 membrane polyspecificity reagent, FACS + sequencing; frameworks hold sequencing errors
In short: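 Synthetic nanobody libraries on Saccharomyces cerevisiae BJ5465 were galactose-induced for 36–48 hours, stained 1 hour at 4 °C with 10% biotinylated, detergent-solubilized Sf9 membrane reagent and enriched on streptavidin microbeads. FACS then separated cells into low and high (top ~1%) gates by anti-HA (expression) and streptavidin (reagent binding) fluorescence. Genes were colony-PCR amplified, MiSeq 2 × 250 sequenced and CDR-length filtered. A clone's polyreactivity label is that of its gate of origin.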

| Sequence | polyreactivity (PSR sort gate) |
| --- | --- |
| QVQLVESGGGLVQAGGSLRLSCAASGLTIYPNAMGWYRQAPGKERELVAAITYSGDTYYADSVKGRFTISRDNAKNTVYLQMNSLKPEDTAVYYCATDVDWAYGYQYEYWGQGTQVTVSS | low polyreactivity |
| QVQLVESGGGLVQAGGSLRLSCAASGSIFGFYVMGWYRQAPGKERELVAAISRGGTRTYYAVSVKGRFTISRDNAKNTVYLKMNSLKPEDTAVYYCAKYEGGSCTGPRSDYWGQGTQVTVSS | high polyreactivity |
| QVQLVESGGGLVQAGGSLRLSCAASGRIFWDYAMGWYRQAPGKERELVAGISYSGGSTSYADSVKGRFTISRDNAKNTVYLQMNSLKPEDTAVYYCAARPSGTFFRDYDYWGQGTQVTVSS | low polyreactivity |
| QDQLVESGGGLVQAGGSLRLSCAASARIFERYAKGWYRPPPGKEMELVAAISYRGGRTYYADSVKGRFTISRVNAKNTVYLQMNSLKPEDTAVYYCAAYTYFRDWAEYDYWGQGTQVTVSS | high polyreactivity |
| QVQLVESGGGLVQAGGSIRLSCAASGLIFRYYTMGWYRQAPGKERELVATITKSGSSTYYADSVKGRFTISRDNAKNTVYLQMNSLKPEDTAVYYCAARVTRRYDYWGQGTQLTVSS | high polyreactivity |
| QVQLVESGGGLVQAGGSLRLSCAASGSIFASNAMGWYRQAPGKERELVADISGTTGSTYYADSVKGRFTISRDNAKNTVYLQMNSLKPEDTAVYYCAADLVWVSTSYYYWGQGTLVTVSS | low polyreactivity |
| QVQLVDSGGGLVQAGGSLRLSCAASGYTILSYVMGWNRQAPGKERELVAAIRRSGGSTYYADSVKGRFTISRDNAKNTVYLQMNSLKPEDTAVYYCNAPHHRYDWGQGTQVTVSS | high polyreactivity |
| QVQLVESGGGLVQAGGSLRLSCAASGGIFDTYAMGWYRQAPGKERELVAAISANGGETYYADSVKGRFTISRDNAKTTVYLQMNSLKPEDTAVYYCAADGFLPILHPVPWSYYYPFGYWGQGTQVTVSS | low polyreactivity |
| QVQLVESGGGLVQAGGSLRLSCAASGFTFRWYAMGWYRQAPGKERELVAAISVSGGSTSYADSVKGRFTISRDNAKNTVYLQMNSLKPEDTAVYYCAAVRWAGYVSDYGYWGQGTQVTVSS | high polyreactivity |
| QVQLVESGGGLVQAGGSLRLSCAASGSIFSRYAMGWYRQAPGKERELVAAISQRAGSTYYADSVKGRFTISRDNAKNTVYLQMNSLKPEDTAVYYCAARRRGRKERGEDYWGQGTQVTVSS | high polyreactivity |
| QVQLVESGGGLVQAGGSLRLSCAASGFIFQPYSLGWYRQAPGKERELVAAITSRGGRTYYADSVKGRFTISRDNAKNTVYLQMNSLKPEDTAVYYCNADIYASEYYYWGQGTQVTVSS | low polyreactivity |
| QVQLVESGGGLVQAGGSLRLSCAASGSTFLGNAMGWYRQAPGKERELVAAISGRGGSTYYADSVKGRFTISRDNAKNTVYLQMNSLKPEDTAVYYCAAPLYHYVQYGYWGQGTQVTVSS | high polyreactivity |
| QVQLEESGGGLVQAGGSLRLSCAASGITFEAYAMGWYRQAPGKERELVAAIRSSGTSTYYADSVMGRFTISRDNAKNTVYLQMNSLKPEDTAVYYCNRARSSSRYDYWGQGTQVTVSS | low polyreactivity |
| QVQLVESAGGLVQAGGSLSLSCAASGSIFWSYAMGWYRQAPGKERELVAVINWSGGSTYYADSVKGRFTISRDNAKNTVYLQMNSLKPEDTAVYYCNKDLGPTKRPFTFDYWGQGTQVTVSS | low polyreactivity |
| QVQLVESGGGLVQAGGSLRLSCAASGLIFVTNAMGGYRQAPGKERELVAAITRSGGSTYYADSVKGRFTISRDNAKNTVYLQMNSLKQEDTAVYYCATGFHYAYGYWGQGTQVTVSS | low polyreactivity |
| QVQLVESGGGLVQAGGTLRLSCAASGSIFAVNAMGWYRQAPGKERELVAAISKRGGSTYYADSVKGRFTISRDNAKNTVYLQMNSLKPEDTAVYYCAARILVTYHRDYYYWGLGTQVTVSS | high polyreactivity |
| QVQLVESGGGLVQAGGSLRVSCAASGRIFDENAMGWYRPAPGKERELVAAIDWSGGSTYYADSVKGRFTISRDYAKNTVYLQMNRQKPEDTAVYYCNADYYYYVSLGWWSFIVSEYDYWGHGTQVTVSS | low polyreactivity |
| QVQLVESGGGLVQAGGSLRLSCAASGSILAIYAMGWYRQAPGKERELVAAITWSGDSTYYADSVKGRFTISRDNAKNTVYLQMNSLKPEDTAVYYCAAGPGYWYEHEYWGQGTQVTVSS | low polyreactivity |
| QVQLVESGGGLVQAGGSLRLSCAASGSTFAKYVMGWYRQAHGKERELVAAISRRGSSTYYADSVKGRFTISRDNAKNTVYLQMNSLKPEDTAVYYCAARFRYSGFEGMDYWGQGTQVTVSS | high polyreactivity |
| QVQLVESGGGLVQAGGSLRLSCAASGSTFYPYAMGWYRQAPGKERELVAAIDRGGSTSYADSVKGRFTISRDNAKNTVYLQMNSLKPEDTAVYYCAVARGGRRKYEYWGQGTQVTVSS | low polyreactivity |
| QVQLQESGRRPGAAGGSPRMSCAASGNIFWVAVMGRYRQAPGKERELVASIGFGCTTYYADSVKCRFTISRDNAKNTVYLQMISLKPEDTAVYYCAAPHYDWGELDYWGQGTQVPVSS | low polyreactivity |
| QVQLVESGGGLVKAGGSLRLSCAASGSIGSYAMGCYRQAPGKERELVAAISSRGGSTYYADSVKGRFTISRDNAKNTVYLQMNSLKPEDTAFYYCAADYRGRYYSKYYYWGQGTQVTVSS | high polyreactivity |

| Sequence | polyreactivity (PSR sort gate) |
| --- | --- |
| QVQLVESGGGLVQAGGSLRLSCAASGRIFYVYAMGWYRQAPGKERELVATIDWSGGSTYYADSVKGRFTISRDNAKITVYLQMNSLKPEDTAVYYCAAYYTSYWGYDYDYWGQGTQVTVSS | low polyreactivity |
| QVQLVESGGGLVQAGGSLRLSCADSGSTFYVYSMGWYRQAPGKERELVAAITGSTGSTYYADSVKGRFTISRDNAKNTVYLQMNSLKPVDTAVYYCAADFYGVPIIYDYWGQGTQVTLSS | low polyreactivity |
| QVQLVESGGGLVQAGGSLRLSCAASGRTFTRYAMGWYRQAPGKERELVASISSRGTRTYYADSVKGRFTISRDNAKNTVYLQMNSLKPDDTAVYYCNVGFYPYYFLTYQGGDYWGQGTQVTVSS | high polyreactivity |
| QDQLVDSGGGLVQAGGSLRLSCAASASTFDPNLMPSYRQAPGKEREVVAAISSRSGSTSYADSVKGRFTISRDNAKNTDYLQMNSLKPEDTAVYYCAARVYGLPLRMYSWGQGTQVTGSS | high polyreactivity |
| QVQLVESWGGLVQAGGSLRLSCAASGSLFTSNAMVWYRQAPGKEREFVAGIDYSTGGTSYADSVKGRFTISRDNAKNNVYLQMNRLLPEDTAVYYCNADRWLVYVHTWEYDYWGQGTQVTVSS | low polyreactivity |
| QVHHVESGGGLVQAGGSLRLSCAASGFIIPYYAMGWYRPAPGKERELVAAISWSGSNTYYADSVKGRFTISRDNAKNTVYLQMNSLKPEDTAVYYCAARYSVYYFVQRNGRYGYWGQGTQVTVSS | high polyreactivity |
| QLQLVESGGGLVQAGGSLRLSCAASGSTFSYNAMGWYRQAPWKERELVAAISGSGGTTYYADSVKVRVTISRDNAKNTVYLQMNSLKPEDTAVYYCAARPFRSWRYDYWGQGSQVTVSS | low polyreactivity |
| QVQLVESGGGLVQAGGSLRLSCAASGLIVVHYAMGWYSQAPGKVREFVAAITWSGGSTYYADSVKGRFTISRDNAKNTVYLQMNSLKPEDTAVYYCAVDGFRPGTASFGYWGQGTQVTVSS | low polyreactivity |
| QVQLVESGGGLVQAGGSLRLSCAASGRTFSYAMGWYRQAPGKERELVAAISSGARTYYADSVKGRFTISRDNAKNTVYLQMNSLIPEDTAVYYCNARSRYEGLNYWGHGTQVTVSS | high polyreactivity |
| QVQLVESGGGLVQAGGSLRLSCAASGSTSVDYTMGLYRQAPGKERELVAAIDYNGDSTYYADSVKGRFTISRDNAKNTVYLQMNSLKPEDTAVYYCAADYLSFVVVKLYGYWGQGTQVTVSS | low polyreactivity |
| QVQLVESGGGLVQAGGSLRLSCAASGFIFGGYAMGWYRPAPGKERELVAAISSSGGSTYYADSVKGRFTISRDNAKNTVYLQMNSLKPEDTAVYYCAARIQSVSSGRWFDYWGQGTQVTVSS | high polyreactivity |
| QVQLVESGGGLVQPGGSLRLSCAASGRIFYYYAMGWYRQAPGKERELVAAITWNGTSTYYADSVKGRFTISRDNAKNTVYLQMNSLKPEDTAVYYCAKSLRAYRHVIYGKPFYSWGQGTQVTVSS | low polyreactivity |
| QVQLVETGGGLVQAGGSLRLSCAASGRTLSQNTMGWNRQAPRKEREFVASITYSGGITYYADSVKGRFTISRDNAKNTVYLQMNSLKPEDTAVYYCNKRGSHYWYSYPGDYWGQGTQVTVSS | low polyreactivity |
| QVQLVESGGGLVQAGGSLRLSCAASGRTFSGYVMGWYRQAPGKERELVATINGSGASTYYADSVKGRFTISRDNAKNTVYLQTNSLKPEDTAVYYCAAKRYRPKYEYYYWGQGTQVTVSS | high polyreactivity |
| QVQIVESGGGLVHAGGSLRLSCAASGSIYKRYAMGWYRQAPGKERELVAAIRWSGGSTYYADSVKGRFTISRDNAMNTVFLQMNSLKPEDTAVYYCARDGWGRLYGMGYWGQGTQVTVSS | low polyreactivity |
| QVQLVESGGGLVQAGGSLPLSCAASGRIFVVYAMGWYRQAPGKERDLVAGISWTDGRTYYADSVKGRFTISRDNAKNTVYLLMNSLKPEDTAVYYCNKARTSQYHHTYWRTYGYWGQGTQVTLSS | low polyreactivity |
| QVQLVESGGGLVQAGGSLRLSCAASGSIFFPNAMGWYRQAPGKERELVAAITSTSTNYADSVKGRCTNSRDNAKNTVYLQLNSLKPEDTAVYYCAADGEFRRAWYEGDYWGQGTQVTVSS | low polyreactivity |
| QVQLVESGGGLVQAGGSLRLSCAASGSIIGRYAMGWYRQAPGKERELVAAISTGGGRTYYADSVKGRFTISRDSAKNTVYFQLNSLKPEDTAVYYCNAGPYKGWGRMDYWGQGTQVNVSS | high polyreactivity |
| QVQLVESGGGLVQAGGSLRLSCAASGSTFYPYAMGWYRQAPGKERELVAAISSGGSTSYADSVKGRFTISRDNAKNTVYLQMNSLKPEDTAVYYCAVDVAGGEGMDYWGQGTQVTVSS | low polyreactivity |
| QVQLVESGGGLVQAGGSLRLICAASGITFYYYAMGWYRQAPGKERELVAAITFTGGSTYYADSVKGRFTISRDNAKNTVYLQMNSLKPEDTAVYYCNRLGPLGDQQQYDYWGQGTQVTVSS | low polyreactivity |
| QVHLVESGGGLVQAGGSLRLSCAASGSTFGLKAMGWYRQAPGKEREFVASINFNDGSTYYADSVKGRFTISRDNAKNTVYLQMNSLKPEDPAVYYCAVELWWKWPFYYWGQGTQVTVSS | high polyreactivity |
